# Laboratory results: PMC9482650, “Quantitative fragmentomics allow affinity mapping of interactomes” (Nature Communications, 2022)
# T1: SYNPO2L, Q9H987
# T1 sequence (Q9H987 1-98, limits assumed, looked up): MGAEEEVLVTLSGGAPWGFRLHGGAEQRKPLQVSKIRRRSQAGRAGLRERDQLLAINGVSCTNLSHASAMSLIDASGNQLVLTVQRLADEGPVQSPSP
# T2: MPDZ_7, O75970
# T2 sequence (O75970 1146-1253, limits assumed, looked up): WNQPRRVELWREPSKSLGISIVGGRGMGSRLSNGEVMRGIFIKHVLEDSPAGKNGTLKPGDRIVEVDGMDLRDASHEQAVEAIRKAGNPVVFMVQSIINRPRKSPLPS
# T3: PTPN13_5, Q12923
# T3 sequence (Q12923 1877-1975, limits assumed, looked up): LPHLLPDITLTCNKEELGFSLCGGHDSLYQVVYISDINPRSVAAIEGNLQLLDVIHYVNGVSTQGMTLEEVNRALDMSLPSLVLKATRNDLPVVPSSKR
# T4: SHROOM2, Q13796
# T4 sequence (Q13796 21-118, limits assumed, looked up): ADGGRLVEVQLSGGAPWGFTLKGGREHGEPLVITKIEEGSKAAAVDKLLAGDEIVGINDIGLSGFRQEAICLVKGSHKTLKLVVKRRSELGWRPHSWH
# T5: MPDZ_6, O75970
# T5 sequence (O75970 1003-1099, limits assumed, looked up): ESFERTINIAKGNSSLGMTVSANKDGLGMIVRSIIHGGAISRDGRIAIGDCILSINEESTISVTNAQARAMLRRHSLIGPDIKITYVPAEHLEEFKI
# T6: USH1C_1, Q9Y6N9
# T6 sequence (Q9Y6N9 82-179, limits assumed, looked up): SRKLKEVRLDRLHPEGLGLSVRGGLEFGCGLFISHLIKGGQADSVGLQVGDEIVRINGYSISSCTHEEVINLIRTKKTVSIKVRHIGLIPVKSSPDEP
# T7: SNTB2, Q13425
# T7 sequence (Q13425 110-208, limits assumed, looked up): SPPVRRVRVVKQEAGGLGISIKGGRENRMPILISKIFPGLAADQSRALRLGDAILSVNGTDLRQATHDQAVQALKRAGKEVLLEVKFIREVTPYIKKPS
# T8: NHERF1_2, O14745
# T8 sequence (O14745 149-244, limits assumed, looked up): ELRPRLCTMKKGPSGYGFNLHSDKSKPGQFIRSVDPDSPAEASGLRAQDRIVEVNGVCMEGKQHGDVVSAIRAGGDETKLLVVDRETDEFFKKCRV
# T9: PDZD2_4, O15018
# T9 sequence (O15018 723-823, limits assumed, looked up): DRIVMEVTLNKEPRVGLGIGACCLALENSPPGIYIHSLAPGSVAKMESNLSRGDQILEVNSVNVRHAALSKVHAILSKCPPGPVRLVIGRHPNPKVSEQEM
# T10: PARD6B, Q9BYG5
# T10 sequence (Q9BYG5 152-260, limits assumed, looked up): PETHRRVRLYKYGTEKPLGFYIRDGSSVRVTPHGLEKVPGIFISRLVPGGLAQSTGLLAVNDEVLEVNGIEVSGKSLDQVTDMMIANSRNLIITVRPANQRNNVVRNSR
# Biological target: CNKSR3, Q6P9H4
# Test: holdup assay
# Set-up: key: below the threshold = too weak to quantify, mostly under pKd 3.1 to 4
# Conditions: plain residues with an end cap or a label only (N-terminal biotin on a linker: ttds)
# Sequence of CNKSR3, Q6P9H4 (Q6P9H4 203-303): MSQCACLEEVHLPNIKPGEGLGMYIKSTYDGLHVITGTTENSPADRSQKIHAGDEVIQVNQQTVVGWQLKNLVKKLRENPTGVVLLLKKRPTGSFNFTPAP
row,pKd,Binder
1,below the threshold,"DEDQHTQITKV [PTEN, P60484]"
2,below the threshold,"TGDTLEKFVEGL [CBP, Q92793]"

# Biological target: IL16_2, Q14005
# Test: holdup assay
# Set-up: key: below the threshold = too weak to quantify, mostly under pKd 3.1 to 4
# Conditions: plain residues with an end cap or a label only (N-terminal biotin on a linker: ttds)
# Sequence of IL16_2, Q14005 (Q14005 350-450): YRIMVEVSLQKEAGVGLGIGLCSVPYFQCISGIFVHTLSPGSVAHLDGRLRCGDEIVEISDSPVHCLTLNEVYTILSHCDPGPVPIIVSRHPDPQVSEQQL
row,pKd,Binder
1,below the threshold,"DEDQHTQITKV [PTEN, P60484]"
2,below the threshold,"TGDTLEKFVEGL [CBP, Q92793]"

# Biological target: PARD3B_2, Q8TEW8
# Test: holdup assay
# Set-up: key: below the threshold = too weak to quantify, mostly under pKd 3.1 to 4
# Conditions: plain residues with an end cap or a label only (N-terminal biotin on a linker: ttds)
# Sequence of PARD3B_2, Q8TEW8 (Q8TEW8 376-471): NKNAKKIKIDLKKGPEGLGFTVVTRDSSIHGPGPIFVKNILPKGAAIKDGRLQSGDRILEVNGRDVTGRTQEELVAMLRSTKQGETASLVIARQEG
row,pKd,Binder
1,below the threshold,"DEDQHTQITKV [PTEN, P60484]"
2,3.9,"TGDTLEKFVEGL [CBP, Q92793]"

# Biological target: SDCBP_1, O00560
# Test: holdup assay
# Set-up: key: below the threshold = too weak to quantify, mostly under pKd 3.1 to 4
# Conditions: plain residues with an end cap or a label only (N-terminal biotin on a linker: ttds)
# Sequence of SDCBP_1, O00560 (O00560 111-198): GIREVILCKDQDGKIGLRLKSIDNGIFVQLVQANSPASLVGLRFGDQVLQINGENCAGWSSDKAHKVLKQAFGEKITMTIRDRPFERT
row,pKd,Binder
1,below the threshold,"DEDQHTQITKV [PTEN, P60484]"
2,below the threshold,"TGDTLEKFVEGL [CBP, Q92793]"

# Biological target: T1, SYNPO2L, Q9H987
# Test: holdup assay
# Set-up: key: below the threshold = too weak to quantify, mostly under pKd 3.1 to 4
# Conditions: plain residues with an end cap or a label only (N-terminal biotin on a linker: ttds)
row,pKd,Binder
1,below the threshold,"DEDQHTQITKV [PTEN, P60484]"
2,below the threshold,"TGDTLEKFVEGL [CBP, Q92793]"

# Biological target: T2, MPDZ_7, O75970
# Test: holdup assay
# Set-up: key: below the threshold = too weak to quantify, mostly under pKd 3.1 to 4
# Conditions: plain residues with an end cap or a label only (N-terminal biotin on a linker: ttds)
row,pKd,Binder
1,3.71,"DEDQHTQITKV [PTEN, P60484]"
2,below the threshold,"TGDTLEKFVEGL [CBP, Q92793]"

# Biological target: T3, PTPN13_5, Q12923
# Test: holdup assay
# Set-up: key: below the threshold = too weak to quantify, mostly under pKd 3.1 to 4
# Conditions: plain residues with an end cap or a label only (N-terminal biotin on a linker: ttds)
row,pKd,Binder
1,below the threshold,"DEDQHTQITKV [PTEN, P60484]"
2,below the threshold,"TGDTLEKFVEGL [CBP, Q92793]"

# Biological target: T4, SHROOM2, Q13796
# Test: holdup assay
# Set-up: key: below the threshold = too weak to quantify, mostly under pKd 3.1 to 4
# Conditions: plain residues with an end cap or a label only (N-terminal biotin on a linker: ttds)
row,pKd,Binder
1,below the threshold,"DEDQHTQITKV [PTEN, P60484]"
2,3.83,"TGDTLEKFVEGL [CBP, Q92793]"

# Biological target: T5, MPDZ_6, O75970
# Test: holdup assay
# Set-up: key: below the threshold = too weak to quantify, mostly under pKd 3.1 to 4
# Conditions: plain residues with an end cap or a label only (N-terminal biotin on a linker: ttds)
row,pKd,Binder
1,below the threshold,"DEDQHTQITKV [PTEN, P60484]"
2,below the threshold,"TGDTLEKFVEGL [CBP, Q92793]"

# Biological target: MAGI1_3, Q96QZ7
# Test: holdup assay
# Set-up: key: below the threshold = too weak to quantify, mostly under pKd 3.1 to 4
# Conditions: plain residues with an end cap or a label only (N-terminal biotin on a linker: ttds)
# Sequence of MAGI1_3, Q96QZ7 (Q96QZ7 638-725): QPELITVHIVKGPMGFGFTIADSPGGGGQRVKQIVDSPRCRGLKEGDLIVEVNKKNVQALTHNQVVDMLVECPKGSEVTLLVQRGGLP
row,pKd,Binder
1,4.5,"DEDQHTQITKV [PTEN, P60484]"
2,below the threshold,"TGDTLEKFVEGL [CBP, Q92793]"

# Biological target: MAGI3_3, Q5TCQ9
# Test: holdup assay
# Set-up: key: below the threshold = too weak to quantify, mostly under pKd 3.1 to 4
# Conditions: plain residues with an end cap or a label only (N-terminal biotin on a linker: ttds)
# Sequence of MAGI3_3, Q5TCQ9 (Q5TCQ9 572-655): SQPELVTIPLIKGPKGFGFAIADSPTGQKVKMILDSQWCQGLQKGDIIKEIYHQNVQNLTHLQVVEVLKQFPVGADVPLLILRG
row,pKd,Binder
1,below the threshold,"DEDQHTQITKV [PTEN, P60484]"
2,below the threshold,"TGDTLEKFVEGL [CBP, Q92793]"

# Biological target: MAGI1_6, Q96QZ7
# Test: holdup assay
# Set-up: key: below the threshold = too weak to quantify, mostly under pKd 3.1 to 4
# Conditions: plain residues with an end cap or a label only (N-terminal biotin on a linker: ttds)
# Sequence of MAGI1_6, Q96QZ7 (Q96QZ7 1146-1238): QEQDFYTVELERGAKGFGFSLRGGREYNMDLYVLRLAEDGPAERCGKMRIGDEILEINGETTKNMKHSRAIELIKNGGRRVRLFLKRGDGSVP
row,pKd,Binder
1,below the threshold,"DEDQHTQITKV [PTEN, P60484]"
2,below the threshold,"TGDTLEKFVEGL [CBP, Q92793]"

# Biological target: T6, USH1C_1, Q9Y6N9
# Test: holdup assay
# Set-up: key: below the threshold = too weak to quantify, mostly under pKd 3.1 to 4
# Conditions: plain residues with an end cap or a label only (N-terminal biotin on a linker: ttds)
row,pKd,Binder
1,below the threshold,"DEDQHTQITKV [PTEN, P60484]"
2,below the threshold,"TGDTLEKFVEGL [CBP, Q92793]"

# Biological target: T7, SNTB2, Q13425
# Test: holdup assay
# Set-up: key: below the threshold = too weak to quantify, mostly under pKd 3.1 to 4
# Conditions: plain residues with an end cap or a label only (N-terminal biotin on a linker: ttds)
row,pKd,Binder
1,below the threshold,"DEDQHTQITKV [PTEN, P60484]"
2,below the threshold,"TGDTLEKFVEGL [CBP, Q92793]"

# Biological target: NHERF2_1, Q15599
# Test: holdup assay
# Set-up: key: below the threshold = too weak to quantify, mostly under pKd 3.1 to 4
# Conditions: plain residues with an end cap or a label only (N-terminal biotin on a linker: ttds)
# Sequence of NHERF2_1, Q15599 (Q15599 9-91): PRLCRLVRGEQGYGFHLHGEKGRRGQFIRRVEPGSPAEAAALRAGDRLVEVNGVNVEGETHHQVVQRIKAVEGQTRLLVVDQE
row,pKd,Binder
1,below the threshold,"DEDQHTQITKV [PTEN, P60484]"
2,3.84,"TGDTLEKFVEGL [CBP, Q92793]"

# Biological target: PDLIM4, P50479
# Test: holdup assay
# Set-up: key: below the threshold = too weak to quantify, mostly under pKd 3.1 to 4
# Conditions: plain residues with an end cap or a label only (N-terminal biotin on a linker: ttds)
# Sequence of PDLIM4, P50479 (P50479 1-83): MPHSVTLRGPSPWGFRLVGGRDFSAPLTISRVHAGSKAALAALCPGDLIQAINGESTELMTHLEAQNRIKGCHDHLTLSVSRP
row,pKd,Binder
1,below the threshold,"DEDQHTQITKV [PTEN, P60484]"
2,below the threshold,"TGDTLEKFVEGL [CBP, Q92793]"

# Biological target: PTPN13_2, Q12923
# Test: holdup assay
# Set-up: key: below the threshold = too weak to quantify, mostly under pKd 3.1 to 4
# Conditions: plain residues with an end cap or a label only (N-terminal biotin on a linker: ttds)
# Sequence of PTPN13_2, Q12923 (Q12923 1363-1462): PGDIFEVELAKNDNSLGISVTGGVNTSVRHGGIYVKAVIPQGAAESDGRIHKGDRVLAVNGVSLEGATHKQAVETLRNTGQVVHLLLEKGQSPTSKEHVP
row,pKd,Binder
1,3.81,"DEDQHTQITKV [PTEN, P60484]"
2,below the threshold,"TGDTLEKFVEGL [CBP, Q92793]"

# Biological target: DLG2_1, Q15700
# Test: holdup assay
# Set-up: key: below the threshold = too weak to quantify, mostly under pKd 3.1 to 4
# Conditions: plain residues with an end cap or a label only (N-terminal biotin on a linker: ttds)
row,pKd,Binder
1,below the threshold,"DEDQHTQITKV [PTEN, P60484]"
2,below the threshold,"TGDTLEKFVEGL [CBP, Q92793]"

# Biological target: T8, NHERF1_2, O14745
# Test: holdup assay
# Set-up: key: below the threshold = too weak to quantify, mostly under pKd 3.1 to 4
# Conditions: plain residues with an end cap or a label only (N-terminal biotin on a linker: ttds)
row,pKd,Binder
1,below the threshold,"DEDQHTQITKV [PTEN, P60484]"
2,3.96,"TGDTLEKFVEGL [CBP, Q92793]"

# Biological target: T9, PDZD2_4, O15018
# Test: holdup assay
# Set-up: key: below the threshold = too weak to quantify, mostly under pKd 3.1 to 4
# Conditions: plain residues with an end cap or a label only (N-terminal biotin on a linker: ttds)
row,pKd,Binder
1,below the threshold,"DEDQHTQITKV [PTEN, P60484]"
2,below the threshold,"TGDTLEKFVEGL [CBP, Q92793]"

# Biological target: T10, PARD6B, Q9BYG5
# Test: holdup assay
# Set-up: key: below the threshold = too weak to quantify, mostly under pKd 3.1 to 4
# Conditions: plain residues with an end cap or a label only (N-terminal biotin on a linker: ttds)
row,pKd,Binder
1,4.25,"DEDQHTQITKV [PTEN, P60484]"
2,4.58,"TGDTLEKFVEGL [CBP, Q92793]"
